± gives the uncertainty stated by the source.

The data set in a line: self-splicing fitness, log relative to wild type (ln ratio); higher = more splicing; Tetrahymena group I intron in knt gene, E. coli kanamycin selection, DiMSum; sequences stand for … in CUCUCU…GGAGGGAAAAGUUAUCAGGCAUGCACCUGGUAGCUAGUCUUUAAACCAAUAGAUUGCAUCGGUUUAAAAGGCAAGACCGUCAAAUUGCGGGAAAGGGGUCAACAGCCGUUCAGUACCAAGUCUCAGGGGAAACUUUGAGAUGGCCUUGCAAAGGGUAUGGUAAUAAGCUGACGGACAUGGUCCUAACCACGCAGCCAAGUCCUAAGUCAACAGAUCUUCUGUUGAUAUGGAUGCAGUUCACAGACUAAAUGUCGGUCGGGGAAGAUGUAUUCUUCUCAUAAGAUAUAGUCGGACCUCUCCUUAAUGGGAGCUAGCGGAUGAAGUGAUGCAACACUGGAGCCGCUGGGAACUAAUUUGUAUGCGAAAGUAUAUUGAUUAGUUUUGGAGUACUCGUGGUCG
Put shortly:
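Fitness was computed with DiMSum as the error-weighted combination of replicate fold changes, kanamycin versus none, each normalised to wild type. The library randomised all eight intron nucleotides of the P1ex region, with the intron placed in the knt kanamycin-resistance gene on pET-22b(+) in E. coli BL21(DE3). Six replicate transformations were grown overnight at 37°C or 30°C on LB agar with or without 25 μg/mL kanamycin, plus 100 μg/mL carbenicillin, 50 μM IPTG and 0.2% rhamnose. Pooled colonies were amplicon-sequenced on an Illumina HiSeq 2500.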

As for GAAAAGCAAUAUUACGUCGU, the “self-splicing fitness (ln)” value by setting is: (30 °C) -0.785 ± 0.086; (37 °C) -1.29 ± 0.12. For GAACAGCAAUAUUACGAACA the same measures were -0.908 ± 0.1 and -0.166 ± 0.12. As to GAACAGCAAUAUUACGAUAG, the “self-splicing fitness (ln)” value is -3.6 ± 0.14 (30 °C) and -0.972 ± 0.094 (37 °C). For the sequence GAACAGCAAUAUUACGAUGA, the “self-splicing fitness (ln)” value runs as follows: (30 °C) -0.145 ± 0.077; (37 °C) -0.155 ± 0.081.

As for GAACAGCAAUAUUACGCAAC, the “self-splicing fitness (ln)” value was -1.58 ± 0.097 (30 °C) and -0.355 ± 0.13 (37 °C).

On to GAACAGCAAUAUUACGCAAU, for which the “self-splicing fitness (ln)” value (30 °C) is -1.53 ± 0.11 and the “self-splicing fitness (ln)” value (37 °C) is -0.769 ± 0.11. Regarding GAACAGCAAUAUUACGCACC, the “self-splicing fitness (ln)” value (30 °C) is -0.638 ± 0.096 and the “self-splicing fitness (ln)” value (37 °C) amounted to 0.0849 ± 0.097. In the case of GAACAGCAAUAUUACGCAGC, the “self-splicing fitness (ln)” value reads like this: (30 °C) -2.2 ± 0.29; (37 °C) -1.16 ± 0.23. For GAACAGCAAUAUUACGCCAG the same measures were -3.71 ± 0.15 and -3.05 ± 0.27. For GAACAGCAAUAUUACGCCUA the same measures were -1.42 ± 0.086 and -0.336 ± 0.087. For GAACAGCAAUAUUACGCCUG, in that order: -1.85 ± 0.13 and 0.185 ± 0.13. Regarding GAACAGCAAUAUUACGCGCA, the “self-splicing fitness (ln)” value was -0.367 ± 0.06 (30 °C) and 0.0257 ± 0.081 (37 °C). For GAACAGCAAUAUUACGCGCG the same measures were -0.924 ± 0.064 and -0.265 ± 0.085. For GAACAGCAAUAUUACGCGGG the same measures were -1.87 ± 0.1 and -1.37 ± 0.11. For GAACAGCAAUAUUACGCUGA, in that order: -3.29 ± 0.2 and -2.04 ± 0.14.

With GAACAGCAAUAUUACGCUUU, the “self-splicing fitness (ln)” value by setting is: (30 °C) -2.71 ± 0.14; (37 °C) -1.93 ± 0.15.

Regarding GAACAGCAAUAUUACGGAAC, the “self-splicing fitness (ln)” value runs as follows: (30 °C) -1.44 ± 0.1; (37 °C) -1.55 ± 0.13. For GAACAGCAAUAUUACGGAUA, in that order: -2.51 ± 0.13 and -1.28 ± 0.12. For GAACAGCAAUAUUACGGCCC, in that order: -0.734 ± 0.27 and -0.265 ± 0.28. For GAACAGCAAUAUUACGGCCG, in that order: -2.39 ± 0.11 and -0.46 ± 0.14. Regarding GAACAGCAAUAUUACGGUCA, the “self-splicing fitness (ln)” value reads like this: (30 °C) -0.702 ± 0.062; (37 °C) -1.05 ± 0.066. For GAACAGCAAUAUUACGGUUA, in that order: -0.16 ± 0.059 and -0.275 ± 0.064. Turning to GAACAGCAAUAUUACGUACA, the “self-splicing fitness (ln)” value runs as follows: (30 °C) -0.915 ± 0.073; (37 °C) -0.72 ± 0.082.

GAACAGCAAUAUUACGUCCA: the “self-splicing fitness (ln)” value (30 °C) was -0.934 ± 0.089 and the “self-splicing fitness (ln)” value (37 °C) was -0.369 ± 0.1. For GAACAGCAAUAUUACGUCGA the same measures were -0.66 ± 0.066 and -0.117 ± 0.076. For GAACAGCAAUAUUACGUCUC the same measures were -2.17 ± 0.17 and -0.443 ± 0.16. For GAACAGCAAUAUUACGUGAG the same measures were -0.394 ± 0.031 and -0.235 ± 0.053. On to GAACAGCAAUAUUACGUGUC, for which the “self-splicing fitness (ln)” value is, setting by setting: (30 °C) -3.49 ± 0.14; (37 °C) -3.22 ± 0.17. For GAACAGCAAUAUUACGUUAA the same measures were -0.997 ± 0.068 and -0.105 ± 0.08.

Regarding GAACAGCAAUAUUACGUUUU, the “self-splicing fitness (ln)” value (30 °C) is -3.06 ± 0.083 and the “self-splicing fitness (ln)” value (37 °C) is -2.25 ± 0.11.

As for GAAGAGCAAUAUUACGACCG, the “self-splicing fitness (ln)” value (30 °C) was -2.29 ± 0.36.

Turning to GAAGAGCAAUAUUACGAGAG, the “self-splicing fitness (ln)” value by setting is: (30 °C) -2.3 ± 0.12; (37 °C) -3.22 ± 0.27. For GAAGAGCAAUAUUACGAGAU, the “self-splicing fitness (ln)” value was -3.35 ± 0.23 (30 °C) and -2.08 ± 0.19 (37 °C). For GAAGAGCAAUAUUACGAUUC the same measures were -3.57 ± 0.26 and -2.45 ± 0.28. Regarding GAAGAGCAAUAUUACGCACG, the “self-splicing fitness (ln)” value by setting is: (30 °C) -2.22 ± 0.1; (37 °C) -1.71 ± 0.16. As for GAAGAGCAAUAUUACGCCGG, the “self-splicing fitness (ln)” value reads like this: (30 °C) -2.66 ± 0.18; (37 °C) -2.5 ± 0.29.

As to GAAGAGCAAUAUUACGCGGC, the “self-splicing fitness (ln)” value runs as follows: (30 °C) -2.37 ± 0.27; (37 °C) -1.8 ± 0.33. For GAAGAGCAAUAUUACGCUAA, the “self-splicing fitness (ln)” value (37 °C) was -2.22 ± 0.3.

On to GAAGAGCAAUAUUACGGACU, for which the “self-splicing fitness (ln)” value was -2.93 ± 0.22 (30 °C) and -1.14 ± 0.13 (37 °C).

As for GAAGAGCAAUAUUACGGAUA, the “self-splicing fitness (ln)” value (30 °C) was -2.15 ± 0.22 and the “self-splicing fitness (ln)” value (37 °C) was -2.85 ± 0.43. On to GAAGAGCAAUAUUACGGAUG, for which the “self-splicing fitness (ln)” value by setting is: (30 °C) -3.4 ± 0.45; (37 °C) -1.09 ± 0.31.

With GAAGAGCAAUAUUACGGCGU, the “self-splicing fitness (ln)” value by setting is: (30 °C) -1.48 ± 0.1; (37 °C) -0.224 ± 0.12. For GAAGAGCAAUAUUACGGGCA, in that order: -1.96 ± 0.16 and -1.23 ± 0.14. For the sequence GAAGAGCAAUAUUACGGGCC, the “self-splicing fitness (ln)” value (30 °C) was -2.16 ± 0.29. With GAAGAGCAAUAUUACGGGGA, the “self-splicing fitness (ln)” value by setting is: (30 °C) -2.93 ± 0.43; (37 °C) -0.71 ± 0.31. For GAAGAGCAAUAUUACGGUAC, in that order: -3.39 ± 0.31 and -1.69 ± 0.32.

Take GAAGAGCAAUAUUACGGUGG: the “self-splicing fitness (ln)” value was -4.19 ± 0.33 (30 °C) and -3.17 ± 0.32 (37 °C). As for GAAGAGCAAUAUUACGUACC, the “self-splicing fitness (ln)” value by setting is: (30 °C) -1.6 ± 0.2; (37 °C) -1.49 ± 0.19. For GAAGAGCAAUAUUACGUAUG the same measures were -3.52 ± 0.23 and -2.16 ± 0.17.

As for GAAGAGCAAUAUUACGUGUA, the “self-splicing fitness (ln)” value runs as follows: (30 °C) -2.66 ± 0.2; (37 °C) -2.76 ± 0.19. As for GAAGAGCAAUAUUACGUGUG, the “self-splicing fitness (ln)” value is, setting by setting: (30 °C) -3.15 ± 0.22; (37 °C) -2.67 ± 0.18.

GAAGAGCAAUAUUACGUUAU: the “self-splicing fitness (ln)” value (30 °C) is -3.85 ± 0.25 and the “self-splicing fitness (ln)” value (37 °C) was -1.47 ± 0.2. For GAAGAGCAAUAUUACGUUCG, in that order: -1.52 ± 0.11 and -0.987 ± 0.14. For GAAUAGCAAUAUUACGAACC, in that order: 0.0666 ± 0.21 and 0.816 ± 0.24. In the case of GAAUAGCAAUAUUACGAAUU, the “self-splicing fitness (ln)” value was -1.78 ± 0.084 (30 °C) and -0.497 ± 0.1 (37 °C). Turning to GAAUAGCAAUAUUACGACAA, the “self-splicing fitness (ln)” value is, setting by setting: (30 °C) -0.386 ± 0.13; (37 °C) -0.329 ± 0.13. For GAAUAGCAAUAUUACGACAG the same measures were -3.2 ± 0.28 and -2.62 ± 0.35.

Consider GAAUAGCAAUAUUACGAGAA, for which the “self-splicing fitness (ln)” value runs as follows: (30 °C) -2.39 ± 0.46; (37 °C) -1.6 ± 0.38. Take GAAUAGCAAUAUUACGAUGG: the “self-splicing fitness (ln)” value was -2.74 ± 0.14 (30 °C) and -0.977 ± 0.12 (37 °C). Take GAAUAGCAAUAUUACGAUUU: the “self-splicing fitness (ln)” value was -1.74 ± 0.12 (30 °C) and -0.649 ± 0.11 (37 °C).

Consider GAAUAGCAAUAUUACGCACC, for which the “self-splicing fitness (ln)” value was -1.19 ± 0.23 (30 °C) and 0.185 ± 0.32 (37 °C). For GAAUAGCAAUAUUACGCGAA the same measures were -3.09 ± 0.21 and -1.96 ± 0.2. With GAAUAGCAAUAUUACGCGUA, the “self-splicing fitness (ln)” value by setting is: (30 °C) -2.17 ± 0.16; (37 °C) -0.973 ± 0.13. GAAUAGCAAUAUUACGCUAC: the “self-splicing fitness (ln)” value (30 °C) was -1.75 ± 0.48. On to GAAUAGCAAUAUUACGGAUG, for which the “self-splicing fitness (ln)” value is, setting by setting: (30 °C) -2.29 ± 0.099; (37 °C) -2.01 ± 0.12.

As to GAAUAGCAAUAUUACGGCCC, the “self-splicing fitness (ln)” value runs as follows: (30 °C) -0.303 ± 0.14; (37 °C) 0.174 ± 0.21.

Turning to GAAUAGCAAUAUUACGGGAC, the “self-splicing fitness (ln)” value by setting is: (30 °C) -3.37 ± 0.31; (37 °C) -2.53 ± 0.3.

Take GAAUAGCAAUAUUACGGGCA: the “self-splicing fitness (ln)” value is -1.19 ± 0.083 (30 °C) and -1.2 ± 0.085 (37 °C).

Consider GAAUAGCAAUAUUACGGGUC, for which the “self-splicing fitness (ln)” value was -1.89 ± 0.21 (30 °C) and -2.68 ± 0.33 (37 °C). As for GAAUAGCAAUAUUACGGUGC, the “self-splicing fitness (ln)” value is, setting by setting: (30 °C) -2.18 ± 0.22; (37 °C) -2.78 ± 0.27. With GAAUAGCAAUAUUACGUAAA, the “self-splicing fitness (ln)” value by setting is: (30 °C) -1.94 ± 0.13; (37 °C) -2.03 ± 0.14. For GAAUAGCAAUAUUACGUAGG the same measures were -3.4 ± 0.15 and -2.68 ± 0.2.

For the sequence GAAUAGCAAUAUUACGUAUG, the “self-splicing fitness (ln)” value was -1.56 ± 0.12 (30 °C) and -1.04 ± 0.18 (37 °C). For GAAUAGCAAUAUUACGUCUA, the “self-splicing fitness (ln)” value (30 °C) was -1.12 ± 0.12 and the “self-splicing fitness (ln)” value (37 °C) is -0.42 ± 0.13.

In the case of GAAUAGCAAUAUUACGUGAC, the “self-splicing fitness (ln)” value by setting is: (30 °C) -3.51 ± 0.28; (37 °C) -1.43 ± 0.2. Regarding GAAUAGCAAUAUUACGUGGC, the “self-splicing fitness (ln)” value is, setting by setting: (30 °C) -3.67 ± 0.27; (37 °C) -1.34 ± 0.17.

The values are drawn from the supplement of paper PMC7877785.
